# B1: Tumor necrosis factor receptor superfamily member 11A (Mus musculus), O35305 (parent)
# chain: MAPRARRRRQLPAPLLALCVLLVPLQVTLQVTPPCTQERHYEHLGRCCSRCEPGKYLSSKCTPTSDSVCLPCGPDEYLDTWNEEDKCLLHKVCDAGKALVAVDPGNHTAPRRCACTAGYHWNSDCECCRRNTECAPGFGAQHPLQLNKDTVCTPCLLGFFSDVFSSTDKCKPWTNCTLLGKLEAHQGTTESDVVCSSSMTLRRPPKEAQAYLPSLIVLLLFISVVVVAAIIFGVYYRKGGKALTANLWNWVNDACSSLSGNKESSGDRCAGSHSATSSQQEVCEGILLMTREEKMVPEDGAGVCGPVCAAGGPWAEVRDSRTFTLVSEVETQGDLSRKIPTEDEYTDRPSQPSTGSLLLIQQGSKSIPPFQEPLEVGENDSLSQCFTGTESTVDSEGCDFTEPPSRTDSMPVSPEKHLTKEIEGDSCLPWVVSSNSTDGYTGSGNTPGEDHEPFPGSLKCGPLPQCAYSMGFPSEAAASMAEAGVRPQDRADERGASGSGSSPSDQPPASGNVTGNSNSTFISSGQVMNFKGDIIVVYVSQTSQEGPGSAEPESEPVGRPVQEETLAHRDSFAGTAPRFPDVCATGAGLQEQGAPRQKDGTSRPVQEQGGAQTSLHTQGSGQCAE
# Variants of: B1
# Conditions: with Tnfsf11, O35235-1
# Sequence of Tnfsf11, O35235-1 (O35235 whole entry): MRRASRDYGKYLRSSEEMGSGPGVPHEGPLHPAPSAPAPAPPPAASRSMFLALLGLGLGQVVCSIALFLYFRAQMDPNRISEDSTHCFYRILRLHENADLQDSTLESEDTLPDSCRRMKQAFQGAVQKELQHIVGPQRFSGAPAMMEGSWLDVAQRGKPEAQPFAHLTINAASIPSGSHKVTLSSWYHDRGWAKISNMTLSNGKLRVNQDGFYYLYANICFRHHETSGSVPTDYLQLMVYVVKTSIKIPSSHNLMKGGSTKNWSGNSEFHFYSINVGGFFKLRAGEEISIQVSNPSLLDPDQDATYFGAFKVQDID
row,Variant,effect of a mutation on the interaction
1,K171G,disrupting interaction
2,K97A,disrupting interaction
3,C127A,disrupting interaction
4,E126A,disrupting interaction
5,G54R,disrupting interaction
6,D85A,decreasing interaction

# — IntAct's records for PubMed 21059944
